According to the supplement of paper PMC12636428:

System: Saccharomyces cerevisiae
Assay: transcriptional activation domain activity (GFP:mCherry ratio, weighted mean of sorted bins, harmonized to initial dataset scale) (arbitrary fluorescence ratio units); higher = stronger transcriptional activation
Conditions: beta-estradiol 1 µM; induction time 4 h
Summary of the method: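 Yeast diploids with a GFP reporter received barcoded protein tiles, fused to an estradiol-inducible synthetic transcription factor, at the URA3 locus. Cultures were diluted 1:5 into SC holding 1 uM beta-estradiol, incubated 4 hours at 30 °C, sorted into 8 bins on GFP:mCherry ratio, and sequenced for barcodes, with tiles under 50 reads discarded. Activation activity values come from the read-weighted mean of bin median fluorescence, averaged across barcodes and linearly placed on the initial dataset scale.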

Sequence	transcriptional activation domain activity
KGEERGMEKDKEKDKDRDREVKKEKAREARADKEGARPKAAIRQVKVKSAVKQ	56500
KGEKDKENDKGEKGEGEKKGENRSRRRRGGRGRGSGDKDKEKDKDGGGGAKKA	27800
KGETAFVEVDEFNRRKDGKEEGGVHNSDMVIKVYLPPHFRVRIALFVLAIWAF	23800
KGFDSQCIEEWDPILFSAAEIWPTKGKPIALVEMDPIDFDFDVDNWDYVTRHL	174000
KGFSLTELVFWLWSLGFILDELVGFSDAGFTLYVMSLWNWFDLIILLLLCSYA	49900
KGGASPEDASAQSGGSRSKEAKETGSSPTGGKVGNSGGKSSSSSGGPEEKNKD	35600
KGGEKKEGEEQNGGGEKKGGEEQKGGGEKKGRWVEEKGGEEQKGGAIAAAGQN	14200
KGGEYHRRKGDETSSQGQMGKKVKSEKGEEEKERRKKKERVKQHVVNVRVAEQ	41900
KGGGAGGGKRAKKEESSDDEAAKPLAKRGKGTANGRANGKARASSAAPVDNQK	44600
KGGKRKRREEDDGEEKDSFGGRRGDDGPSRIAKNEGGDGRAGKHKRSGDDGKE	31100
KGGRKCKKGRAGEEAGMPARRRKGGERGGRGGKTGARGGEEGGGGEGGAARNG	34800
KGGSEKSGNAGKKEDAGKKEAEKKKVEAGKNQGKGKQNTGSGGNKKAAKKGKK	18400
KGGSSPEEASAQSGGARSKEAKETGSSPTGGEVGKSGGKSNKSESSEEKSKDG	19900
KGHVKTGILSANDGVPPTPNLLDYDWNNLNITGYEWISSELRDDALLSAVTLQ	131000
KGIAGLGPTKTIGLFVVLYIATAIFVFVYIVMQFLLVFGTLTERWPAGHLAFC	52200
KGKAAKSGWDDDEDEKKKEEGEGEGGDGGDKSGDIGAGGDGDKKDEASGNADG	27500
KGKGKGKEGKGKGRREGEGGRGTEGREMGEKEREEEREEEREGKEGRREGGKE	24100
KGKGRENVPESESESEEDGDSSPPKAPVRGARGRGRGASRGRGRGRAPAPAAA	< 6570
KGKGRREGGEGGEEREGNRERKRGRGREGKGGKERGNGRGKEGQRKEEREGKG	33500
KGKGRRRGRGRGRGRGRGREGKGKGREGEGKGKGKEKGKGKGKGKGKGKGKGR	28000
KGKQRSEGGGGNRKGGRPPRRIDEDAADSSSNDAGAEGGAKGSEPTKAAKAAS	33400

Sequence	transcriptional activation domain activity
KGKSKERKTESASTSGSEAKESEAAPKEEKEDAKKEDDKKEKAEEKTEEKAEE	51500
KGLNGPKKEDGGDGESRKRGRPEEDEEERKEGGGGGRRARRRERLQGAAGGGS	18600
KGRAEKKKKSSRRRDESESEGEEGEGGGGGGGRAPPKKRARLASKKEAQSGKY	31500
KGRDEEDFPLDYFPVSVEYPTEENAFDPFPPQAFTPAAPSMPISYDNVNERDS	33400
KGRGGGKGRGGGKERGGGKGRGGEGEGEGEGEREGGGRGKERGREGEREGERG	21800
KGRSRENSRQRGNEDRVARGRDESRSRKTGGREASEDRGRSISRQWTPKPAKR	22600
KGVAVADRVVKFVAGYVAYATEQDAAKRPEGEEDVETPSSRFVTKLLRHLLSG	56400
KHERDDEKERKHRKHDKPSKDKDGEDDDGEGRRHKKHRKHKERGSDDEDEHRK	22500
KHEREFEGNSNRDREVVQGKREGGGGERGGRGRGAGGGGERGRGRGNSGRGDG	12500
KHLAEAGLGIAAAGAAKELYDHRKHHRSSSVSSSGGEHNHNGRHIAAAALGAT	28000
KHLEAADGVEDDHRSTVIDQGNDELLVKWASDEGIIEKKPQGRFRLILGGGAS	70100
KHMHLESKPPQLPPKCSSLRKPTNTLQGTNHAYHEHILNTDMDLKILEDLCNI	64100
KHPQNTTTDIENEVENPVTDDNGNLKLELPDNLDNADFSKLLEFDAKNDEALF	33600
KHRSSINTVLVVGGDDKVVKQAGDALKGKLGVKGGGKGPRWSGKFIGVWKAAR	50100
KHYRRRLLQRDILKRKRWSIGLKTLVLLRDLGVFVHHHTVVKALQMQFIVLFG	57200
KIAAGAALATAAGVGLHHLRERQRSQSRSSSSERSGRSRSRHRLRHAAELGAA	64000
KIHIANMAQVAVFLLHKILYGIIPLFEISTCAYFPLLISLWHLNYLLFYTVMF	63200
KIHIVNMAQVIVLCIHRFLYGIIPLFEISTCIYFPLLVSLWHITYILFYIVMF	55200
KIHLLPTGVHQWNLKVKDLIHCLKLFHYAEIMYALSIVPLKAAIIFQCLRVFV	47200
KIHLVNIAQVVVFFIYRFLYGLIPLFEISTCAYYPLLVSLWHLDYLLFYTVMF	64000
KIHLVNIAQVVVFFIYRLLYGLIPLFEIATCAYYPLLVSLWHLDYLLFYTVMF	62800

Sequence	transcriptional activation domain activity
KIHLVNIGQVLVLLLHRFLYGIIPLFEITTCAYFPFLVSLWHIQYILFYAVMF	84900
KIHLVNISQVVVFFVYRFLYGLIPLFEIATCAYYPLLVSLWHLDYLLFYAVMF	48100
KIHLVNLAQVSVFFIHRVLYGIIPLFEIKTCAYFPLLVSLWHMTYILFYIVMF	71200
KIHLVNLAQVTVFFIHRLLYGIIPLFEIATCAYYPFLVSLWHINYLLFYIVMF	42000
KIHLVNLGQISVFFIHRFLFGLIPLFEITTCAFFPLLISLWHIDYLLFYTVMF	39800
KIHLVNLLQISVLFVHRFIFGLVPLFEITTCAFFPLLISLWHLDYILFYVVMF	53800
KIHLVNLSQVVVFFIHRILFGIIPLFEIETCAYFPLLISLWHLTYLLFYVVMF	80700
KIHLVNMAQVVVIFLHRILYGIIPLFEITTCAYFPLLVSLWHLAYILFYVVMF	81600
KIISAFGWNADKHLGFALLQLCMDGNRIRSPLAAMMLLMYYVTLMTHCPQILT	63700
KILLNHNYFYFRMLCHHQTCNIYNLYHQIFLIFLQIIVSILLSLRIIALYLGN	66400
KILNCLSIRLYLCRKGFGSLPNEQLALFNFNARECLRALGVTLFKPRLYRLCY	80900
KILVQAFKAVFTSPSSAKEADGDGEGADIIENNRRARRALYQVKVKTCVASII	42000
KIMSFIIGLGLICPLVLVRDKLTILLTLCYEGLLVGFWFIDHAQALRWYCLFI	68700
KINQIFGYRSGLGFSIITLDWNQIAYIGSPYVAGSFRWAEANVMIGFMFFYWF	70300
KIRTNALLSSFLVSLTEGAANGTRFASPEGAVTSALVRIFLRLIWLWTATGRR	57200
KISAEYMVQYKGGLIGKHFKSLSQIMAFVVYDLVPKDILDAWTIIGRLVVLLW	75900
KISALCCVLSVFKIDDLVNDPILNKVLHLNNIYLDVLISLILRNNQPTIELMV	57900
KISVCWLWGLDSLHLAFCIYMMYWYLITNFCVVAELGCFNIQTFFASKAFVIL	49800
KIVKHVILAATWRTSSVQDSFYLLATWWIICWQFYFVSVYIFPLILIALLHYM	60700
